According to paper PMC9384988, “The TPR domain of PgaA is a multifunctional scaffold that binds PNAG and modulates PgaB-dependent polymer processing” (PLoS Pathogens, 2022):

Experiments:
[1] = target: T1, PgaA-220-367 (Escherichia coli, UniProt P69434); test: Tryptophan quenching, wild-type PgaA-220-367; format: binding, E. coli; conditions: substrate concentration 4.5 mM
T1 construct: His6 (thrombin cleavable, pET28) (N); made in house; host or cells: E. coli BL21 CodonPlus (DE3)
T1 sequence (P69434 220-367): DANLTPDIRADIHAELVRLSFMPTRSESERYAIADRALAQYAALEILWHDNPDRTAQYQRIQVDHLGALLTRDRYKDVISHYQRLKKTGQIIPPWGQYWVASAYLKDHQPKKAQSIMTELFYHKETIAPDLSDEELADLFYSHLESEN
Method: Fluorescence measurements were carried out at 20°C in a quartz cuvette (type no. 115F-QS; Hellma Analytics) using a PTI QuantaMaster 80 steady-state fluorometer (Photon Technology International), with a 4-nm bandwidth for both excitation and emission and a speed of 2 nm/s. Fluorescence spectra were collected between 300 nm and 400 nm with an excitation wavelength of 280 nm and a peak emission wavelength of 334 nm. All samples were prepared in triplicates 10 minutes ahead of the collection in a solution containing 1 μM protein, 20 mM Tris buffer pH 8.0, 150 mM sodium chloride and 1 mM concentrations of dPNAG oligomers. Data measured for each sample was corrected for ligand fluorescence and inner filter effect. […] To obtain an approximate binding affinity the dPNAG oligomer concentration was varied between 0–10 mM.

[2] = target: T2, His-PgaA (PgaA-32-807) (E. coli K-12, UniProt P69434 32-807); test: co-purification (NiNTA, gel filtration) with SDS-PAGE; His-PgaA and PgaB constructs co-expressed in BL21, extracted with 1% DDM, purified by NiNTA and gel filtration (20 mM Tris pH 8, 150 mM NaCl, 0.1% DDM); Coomassie gel of the purified complexes; conditions: partners not purified
T2 construct: also called His-PgaA-32-807; full-length PgaA; source: E. coli BL21: co-expressed with PgaB, in DDM extract of the lysate pellet (pull-down); expressed alone or with PgaB and purified (NiNTA, gel filtration, DDM); not shown: His6, N-terminal, kept
T2 sequence (looked up): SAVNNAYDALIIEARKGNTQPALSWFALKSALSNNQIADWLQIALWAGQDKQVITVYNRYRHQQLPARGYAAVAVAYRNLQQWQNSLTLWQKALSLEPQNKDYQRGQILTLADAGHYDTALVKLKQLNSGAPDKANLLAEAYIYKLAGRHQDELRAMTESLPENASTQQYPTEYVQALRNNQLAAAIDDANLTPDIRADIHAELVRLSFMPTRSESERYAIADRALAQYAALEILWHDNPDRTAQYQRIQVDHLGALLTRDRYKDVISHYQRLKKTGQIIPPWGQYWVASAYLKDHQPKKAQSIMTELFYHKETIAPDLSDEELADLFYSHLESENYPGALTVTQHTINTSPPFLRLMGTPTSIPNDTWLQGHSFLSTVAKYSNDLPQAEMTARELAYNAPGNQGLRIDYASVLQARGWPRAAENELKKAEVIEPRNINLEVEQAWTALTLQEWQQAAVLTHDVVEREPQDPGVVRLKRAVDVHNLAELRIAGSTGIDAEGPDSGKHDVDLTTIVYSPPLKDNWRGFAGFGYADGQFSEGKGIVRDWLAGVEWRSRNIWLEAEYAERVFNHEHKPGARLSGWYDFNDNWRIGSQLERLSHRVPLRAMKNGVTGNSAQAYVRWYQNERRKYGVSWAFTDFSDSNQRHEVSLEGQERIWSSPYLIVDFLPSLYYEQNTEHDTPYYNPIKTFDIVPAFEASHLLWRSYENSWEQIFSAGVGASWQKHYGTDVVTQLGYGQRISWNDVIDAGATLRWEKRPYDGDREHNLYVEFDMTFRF

[3] = Fluorescamine de-acetylation assay; format: biochemical; conditions: 30 μM enzyme and 30 mM PNAG hexamer; fluorescamine readout
Method: (§1) To determine whether the modulation of enzyme activity might be a common theme for the TPR domain across synthase-dependent systems, we assayed the deacetylase and glycoside hydrolase activities of PgaB in the presence and absence of PgaA. As we used co-expression to obtain the complexes, a SDS PAGE gel of the purified solutions of PgaA, PgaB and PgaA/B complexes was analyzed to ensure that equal quantities of the protein/protein complex were used (Fig 2A). Consistent with previous published studies, PgaA and PgaB appear to form a 1:1 complex. The deacetylase activity was assessed using a fluorescamine-based assay with fully acetylated PNAG hexamers as the substrate. As fluorescamine detects the presence of primary amines, which are generated during the deacetylation of the PNAG oligosaccharide, this assay provides a direct readout of the deacetylation activity of PgaB. To assess the glycoside hydrolase activity, we used a biofilm disruption assay, which has been used previously to characterize PgaB’s glycosidase activity. In this assay, biofilms of Staphylococcus epidermidis strain SE801 were grown in 96 well plates for 24 h, at which point PgaB was added. After a further 2 h, the reaction was quenched, plates washes and the amount of adherent biofilm remaining quantified using crystal violet staining. […]

[4] = test system: Staphylococcus epidermidis strain SE801 biofilms; test: Crystal violet-based biofilm disruption assay (glycoside hydrolase activity); format: cell-based; conditions: S. epidermidis SE801 biofilm, 2 h, lower EC50 = higher glycoside hydrolase activity
Method: as §1, with “To assess the glycoside hydrolase activity, we used a biofilm disruption assay, which has been used previously to characterize PgaB’s glycosidase activity. In this assay, biofilms of Staphylococcus epidermidis strain SE801 were grown in 96 well plates for 24 h, at which point PgaB was added.” left out
Cultures of S. epidermidis clinical isolate SE801 were grown overnight at 37°C with shaking at 200 rpm in LB broth without antibiotics. […] The remaining dye was solubilized with 100 μl of 95% (v/v) ethanol for 10 min with rotation, after which time the absorbance was measured at 595 nm.

chitin
quenching of the signal at 334nm [1]: 9%

B1: PgaB (PgaB-1-672) (enzyme, E. coli, UniProt P75906 21-672, looked up)
chain: CISQSRTSFIPPQDRESLLAEQPWPHNGFVAISWHNVEDEAADQRFMSVRTSALREQFAWLRENGYQPVSIAQIREAHRGGKPLPEKAVVLTFDDGYQSFYTRVFPILQAFQWPAVWAPVGSWVDTPADKQVKFGDELVDREYFATWQQVREVARSRLVELASHTWNSHYGIQANATGSLLPVYVNRAYFTDHARYETAAEYRERIRLDAVKMTEYLRTKVEVNPHVFVWPYGEANGIAIEELKKLGYDMFFTLESGLANASQLDSIPRVLIANNPSLKEFAQQIITVQEKSPQRIMHIDLDYVYDENLQQMDRNIDVLIQRVKDMQISTVYLQAFADPDGDGLVKEVWFPNRLLPMKADIFSRVAWQLRTRSGVNIYAWMPVLSWDLDPTLTRVKYLPTGEKKAQIHPEQYHRLSPFDDRVRAQVGMLYEDLAGHAAFDGILFHDDALLSDYEDASAPAITAYQQAGFSGSLSEIRQNPEQFKQWARFKSRALTDFTLELSARVKAIRGPHIKTARNIFALPVIQPESEAWFAQNYADFLKSYDWTAIMAMPYLEGVAEKSADQWLIQLTNQIKNIPQAKDKSILELQAQNWQKNGQHQAISSQQLAHWMSLLQLNGVKNYGYYPDNFLHNQPEIDLIRPEFSTAWYPKND
modifications: C21 lipidated (residues 1-20 are a signal sequence that is cleaved during periplasmic targeting)
notes: signal peptide in the construct; Untagged; also called full-length PgaB; untagged PgaB; source: E. coli BL21: co-expressed with His-PgaA constructs, in DDM extract or co-purified; also separately expressed, cell pellet mixed with the PgaA pellet before lysis
stoichiometry N [2]: 1

B2: PgaB: soluble E. coli PgaB residues 22–672, de-N-acetylase and glycoside hydrolase (protein)
chain: CISQSRTSFIPPQDRESLLAEQPWPHNGFVAISWHNVEDEAADQRFMSVRTSALREQFAWLRENGYQPVSIAQIREAHRGGKPLPEKAVVLTFDDGYQSFYTRVFPILQAFQWPAVWAPVGSWVDTPADKQVKFGDELVDREYFATWQQVREVARSRLVELASHTWNSHYGIQANATGSLLPVYVNRAYFTDHARYETAAEYRERIRLDAVKMTEYLRTKVEVNPHVFVWPYGEANGIAIEELKKLGYDMFFTLESGLANASQLDSIPRVLIANNPSLKEFAQQIITVQEKSPQRIMHIDLDYVYDENLQQMDRNIDVLIQRVKDMQISTVYLQAFADPDGDGLVKEVWFPNRLLPMKADIFSRVAWQLRTRSGVNIYAWMPVLSWDLDPTLTRVKYLPTGEKKAQIHPEQYHRLSPFDDRVRAQVGMLYEDLAGHAAFDGILFHDDALLSDYEDASAPAITAYQQAGFSGSLSEIRQNPEQFKQWARFKSRALTDFTLELSARVKAIRGPHIKTARNIFALPVIQPESEAWFAQNYADFLKSYDWTAIMAMPYLEGVAEKSADQWLIQLTNQIKNIPQAKDKSILELQAQNWQKNGQHQAISSQQLAHWMSLLQLNGVKNYGYYPDNFLHNQPEIDLIRPEFSTAWYPKND
modifications: C21 lipidated (residues 1-20 are a signal sequence that is cleaved during periplasmic targeting)
notes: soluble E. coli PgaB residues 22–672, de-N-acetylase and glycoside hydrolase
concentration of GlcN produced [3]: 988.6 ± 104.7 µM
EC50 [4]: 302 ± 82.3 nM
